According to the supplement of paper PMC9170038:

Test system: K4 kissing-loop RNA reporter
Assay: apparent KD of K4 kissing-loop reporter; higher = weaker reporter binding
Settings: Eterna round: R107
Procedure: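 RNA-MaP round R107: designed RNA switches with theophylline, tryptophan, arginine or FMN aptamers are transcribed on-chip within common flanks. They are titrated with a labelled K4 kissing-loop RNA reporter in RNA-MaP buffer (100 mM Tris pH 7.5, 80 mM KCl, 4 mM MgCl2), without ligand or with the indicated ligand. Median apparent KD per design.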

[1] = input ligand: theophylline 20 uM
[2] = input ligand: tryptophan 2.4 mM
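Further: bound reporter read as fluorescence of individual clusters on recovered sequencing chips by microscopy, with normalized cluster intensities fitted with a binding model.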

| Sequence | apparent KD of K4 kissing-loop reporter (input ligand: FMN 200 uM) [nM] | apparent KD of K4 kissing-loop reporter (input ligand: arginine 13.2 mM) [nM] | apparent KD of K4 kissing-loop reporter (input ligand: none) [nM] | apparent KD of K4 kissing-loop reporter [1] [nM] | apparent KD of K4 kissing-loop reporter [2] [nM] |
| --- | --- | --- | --- | --- | --- |
| GCGGGCCCGGGAGGAUAUGAGUCGAGUGAUGUUCGGCGGUCCAUGCCGUUGCGGCGUUAAGCCCUUUUAGAAGGCCCGGGCCCGC [#2 Exclusion - FMN B Attempt #2 (HarryS)] | 208 | 137 | 161 | 138 | 184 |
| GGGAGUAGUGCGGCCGCCACUGAGAAAGAAGAAGAAUAUAGUGAUGUUAUAUAGGAAGGGAAGAACAGGACCGGGCAUUAGAUUU [SSTRyptB.Y] | 240 | 306 | 380 | 311 | 222 |
| ACCUAGUACGUAGGAUAUCGAACAUCAUUUAGUGAGAUCGAGUGAUGUUCGAUCACGUCUUCAGUUCGAGAAGGACGUACUAGGA [FMN B SS t4] | 335 | 273 | 302 | 477 | 351 |
| GGCAUGCAUGGAAACAUGCAUGCCAUGCCUCGAGGACCGGUACGGCCGCCACUCGUUAAAAGAAAUGCCAGUGAUGUUGGCCGAA | 443 | 430 | 528 | 500 | 175 |
| AGGAUCCGUCGACAAAAGUCGACAUAAACCAAGGAUAUGACGAAAGUCAGAAGGUGGUCAUAAGGCCAGUGAUGUUGGUGGAUCC [FmnA 12 #SwitchBubble #K4Late] | 927 | 431 | 576 | 796 | 349 |
| GCAGUCAAUCGACCACGAAAGUGGAUGGAUACCAGAGUCGAAAGACUCCCUUGGCAGCCAGUGAUGUUGGAAGACUGCAAUAAAA [#SwitchBubble 16 #K4Late] | 1120 | 357 | 622 | 479 | 468 |
| GGCAUAUGAAAUCGCCUAGAGAGAAAGGAUACCAGCACCCGGCGGUGCCCUUGGCAGCCUAGCCCAGUGAUGUUGGGUCCUCUAA [Rasoonanxe] | 228 | 149 | 167 | 296 | 144 |
| CUAUGGAAACAUAGGAAUCGGGAAACCGAUACCAGUAUGGAAACAUACCCUUGGCAGCGGAAUGAUUCAACGGAGUGAUGUUCCG [Theophylline A K4 20] | 395 | 327 | 399 | 293 | 321 |
| GCCGUAGAUUGAAGGAGCGUUCUUCAGCAAACUUGCAGUGAUGUUGCAUUAAACAUGUAAGAACAGGUAGGUCGCAAUCUACGGC | 145 | 138 | 155 | 129 | 121 |
| UUUUAAAUAUCUGAUACCAGAGAAAAUAUAUGUAGUGAUGUUAUAUACAAAAUAAUUAAGCUCCCUUGGCAGCAGUAUUAAUUUU [AstrosExc-TheB#3] | 612 | 658 | 946 | 705 | 541 |
| UUAGCUCUAUAGAGCAAGAGGUAUACUGAUACCAGAGGCUAUAGCCUCCCUUGGCAGCGGAUCGAGUGAUGUUCGUAACCUCAUU [AK4.5 SS Theophylline A] | 616 | 661 | 812 | 724 | 433 |
| GGAUAGGACAUAGGAUAUGGGCUAGGCAAGAAUAACUUGUCUAGCAAAUCCAUGAGGAGUGAUGUUCCAGAAGGGUGUCCUAUCG [FmnBX 1 U11+G75] | 194 | 105 | 99.4 | 111 | 89.9 |
| AUAGAGAAGUGGCACCCUCACUAAAACAGUCGAGGACCGGUACGGCCGCCACUCGCGCGCUUUAGUGAUGUUAAAGAUGUGAAAA | 223 | 209 | 223 | 508 | 215 |
| GUGAAGGAGAUGCAGUGAUGUUGCAGAGACUAGGAUAUCAGGAAACUGAGAAGGAGUCAAUUCCUUCAUUUAGACUGCAACAUAA [KL-SSFMN-A12] | 204 | 139 | 138 | 296 | 191 |
| UGCGCUGUGUCCUGAAAUGUCCUCCGGGAUACCAGAGUCUUUUUAUUCCCUUGGCAGCUUGAGUGAUGUUUGAUGCCGUUCUUGU [yvvymullin] | 668 | 481 | 713 | 576 | 515 |
| UGUGAACAAAAGUAGAGUGGACCACUAUAGCGAGGACCGGUACGGCCGCCACUCGUGUAUGAAUUCAGUGAUGUUGAAAAGAGCU [whbob_EX_Tryp_A_t11] | 131 | 187 | 138 | 254 | 134 |
| GUAUCGCUAGGAGGAUAUUUCAAUCUGACUCUUUGAGUUAGUACGGAGUGAUGUUCCGAUUUACGGAAAGAAGGCCUAGUGAUAC [FMN B 11] | 142 | 312 | 378 | 264 | 299 |
| GAUUUAGAGGCGGCCGCCACUAGUGAUGUUAGUGAUGUUUGAUACUGAAUAUAUCUGCGUUUAGAUAGGACCGGGCCAGAUGGAG [qzwqmullin] | 234 | 164 | 181 | 193 | 177 |
| GUCAUCAGAUCGCAAGAUCUGAUAGCCGAUACCAGCGCGAAGGUGCGCCCUUGGCAGCGGCACCGAGUGAUGUUCGGUCAGACGA [#2 Same State - Theophylline A Attempt #5 (HarryS)] | 526 | 392 | 514 | 330 | 427 |
| CAUAGGAAACUAUGUUUCUCUCUUACUGAAGGAGCGCGUGAAAACGCAGGUAGGUCGCAGAAUUUAAAAGAGAGUGAUGUUCUCA [Ex Arginine A K4 11] | 431 | 374 | 598 | 572 | 446 |
| AAGUCAUAUAGAAGGAGCGUGUUUUUUAAUUUGUUUUCAUGAUCGAGUGAUGUUCGAUAUACACAGGUAGGUCGCUGUAUGAUAA [hbob_SS_Arginine_B_2t143] | 128 | 146 | 130 | 177 | 114 |
| GCUAUGGUAGGAAGGAGCGCUGCGUUGUUUUUACGAGUGAUGUUCGGAAGCGGCGUGUUAAAGCAGGUAGGUCGCCUACUAUAGC [Arginine B K4 24] | 162 | 135 | 184 | 172 | 154 |
